Where two headings read alike, the source gives them in different places.

The values that follow come from patent US20170224836A1 (Novartis, published 2017).

Experiment [1] concerns the target T1, human CDH6 on cells (human, UniProt P55285 54-790).
T1 sequence: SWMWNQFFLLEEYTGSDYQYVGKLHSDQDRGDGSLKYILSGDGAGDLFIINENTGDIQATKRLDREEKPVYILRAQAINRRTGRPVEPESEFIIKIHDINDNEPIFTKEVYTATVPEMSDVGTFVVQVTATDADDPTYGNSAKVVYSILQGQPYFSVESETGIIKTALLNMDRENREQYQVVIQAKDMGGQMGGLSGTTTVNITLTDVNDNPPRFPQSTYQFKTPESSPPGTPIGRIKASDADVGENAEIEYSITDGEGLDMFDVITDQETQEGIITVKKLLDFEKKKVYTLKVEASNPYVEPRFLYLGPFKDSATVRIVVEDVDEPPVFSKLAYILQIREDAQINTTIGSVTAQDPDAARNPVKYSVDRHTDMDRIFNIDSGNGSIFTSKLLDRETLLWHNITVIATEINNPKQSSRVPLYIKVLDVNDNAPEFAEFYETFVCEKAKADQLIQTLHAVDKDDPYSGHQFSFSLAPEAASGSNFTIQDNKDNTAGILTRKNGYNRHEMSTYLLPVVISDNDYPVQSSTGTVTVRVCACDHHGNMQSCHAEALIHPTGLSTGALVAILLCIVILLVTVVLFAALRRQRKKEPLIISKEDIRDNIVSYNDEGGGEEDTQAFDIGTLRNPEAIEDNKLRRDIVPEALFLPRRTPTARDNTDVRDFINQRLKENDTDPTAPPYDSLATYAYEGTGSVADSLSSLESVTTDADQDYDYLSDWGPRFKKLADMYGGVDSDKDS
In words: cell-based or functional assay.

The target of experiment [2] is T1, human CDH6 on cells. In words: cell-based or functional assay. The source holds these as a separate data set.
Experiment [3] addresses T2, hCDH6aa54-615 APPavi (human, UniProt P55285 54-615).
T2 sequence: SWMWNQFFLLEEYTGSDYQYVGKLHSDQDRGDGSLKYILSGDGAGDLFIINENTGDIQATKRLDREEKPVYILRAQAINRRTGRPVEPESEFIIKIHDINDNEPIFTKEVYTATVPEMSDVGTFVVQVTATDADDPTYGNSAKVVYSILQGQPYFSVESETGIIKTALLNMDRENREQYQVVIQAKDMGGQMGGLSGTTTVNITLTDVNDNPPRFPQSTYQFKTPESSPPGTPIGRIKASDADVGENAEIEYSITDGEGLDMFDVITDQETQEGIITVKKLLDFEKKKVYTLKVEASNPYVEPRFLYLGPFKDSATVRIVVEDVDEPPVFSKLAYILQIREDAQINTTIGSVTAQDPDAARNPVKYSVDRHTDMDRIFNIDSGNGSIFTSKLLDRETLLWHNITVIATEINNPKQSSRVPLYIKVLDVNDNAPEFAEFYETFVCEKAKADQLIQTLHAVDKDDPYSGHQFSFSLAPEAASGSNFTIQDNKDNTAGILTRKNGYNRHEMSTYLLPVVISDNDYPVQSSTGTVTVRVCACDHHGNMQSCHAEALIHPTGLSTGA
Put plainly: SPR binning.

The target of experiment [4] is T2, hCDH6aa54-615 APPavi. Put plainly: SPR binning. The source holds these as a separate data set.
The target in experiment [5] is T2, hCDH6aa54-615 APPavi. Put plainly: SPR binning. This is another data set of the same source.
Experiment [6] addresses T2, hCDH6aa54-615 APPavi. Put plainly: SPR binning. The source holds these as a separate data set.
Experiment [7] has as its target T2, hCDH6aa54-615 APPavi. In words: SPR binning. The source holds these as a separate data set.
In experiment [8] the target is T2, hCDH6aa54-615 APPavi. Put plainly: SPR binning. This is another data set of the same source.

B1: NOV0713-SMCC-DM1 (antibody, human IgG1, lambda, V domains shown)
VH: QVQLQQSGPGLVKPSQTLSLTCAISGDSVSSNSAAWNWIRQSPSRGLEWLGRIYYRSKWYNDYAVSVKSRITINPDTSKNQFSLQLNSVTPEDTAVYYCARGLVGRYGQPYHFDVWGQGTLVTVSS
VL: DIELTQPPSVSVSPGQTASITCSGDNLRSYYVHWYQQKPGQAPVLVIYGNNKRPSGIPERFSGSNSGNTATLTISGTQAEDEADYYCGVYTLSSVVFGGGTKLTVLG
modifications: SMCC-DM1 on primary amines, sites not stated
As for B1, in the experiment with human CDH6 on cells [1], the “percent inhibition at 1.22 nM ADC, JHOS4 cells” value (“percent inhibition … JHOS4 cells” for short) is -6.22%; the “percent inhibition at 1.22 nM ADC, KNS42 cells” value (“percent inhibition … KNS42 cells” below) is -17.3%; the “percent inhibition at 1.22 nM ADC, NCIH661 cells” value is -9.74%; the “percent inhibition at 1.22 nM ADC, OVCAR3 cells” value is -3.55%. In the experiment with human CDH6 on cells [1], the “percent inhibition at 1.22 nM ADC, SNU8 cells” value (shortened to “percent inhibition … SNU8 cells”) came out at 7.79%.

B2: NOV0712-SMCC-DM1 (antibody, human IgG1, kappa, V domains shown)
VH: QVQLLESGGGLVQPGGSLRLSCAASGFTFSSHGMHWVRQAPGKGLEWVSVISGSGSNTGYADSVKGRFTISRDNSKNTLYLQMNSLRAEDTAVYYCARQWGSYAFDSWGQGTLVTVSS
VL: DIQMTQSPSSLSASVGDRVTITCRASQSISSYLNWYQQKPGKAPKLLIYAVSTLQSGVPSRFSGSGSGTDFTLTISSLQPEDFATYYCQQSGTFPPTTFGQGTKVEIKR
modifications: SMCC-DM1 on primary amines, sites not stated
With B2, in the experiment with human CDH6 on cells [2], the “Amax (%), inhibition of proliferation, OVCAR3 cells” value (“Amax (%), inhibition … OVCAR3 cells” below) was found to be 88%; the “Amax (%), inhibition of proliferation, OVCAR8 (engineered CDH6+) cells” value (shortened to “Amax (%), inhibition … (engineered CDH6+) cells”) worked out at 95%; the “IP [nM], inhibition of proliferation, OVCAR3 cells” value (shortened to “IP [nM], inhibition … OVCAR3 cells”) amounted to 0.065 nM; the “IP [nM], inhibition of proliferation, OVCAR8 (engineered CDH6+) cells” value (“IP [nM], inhibition … (engineered CDH6+) cells” below) stood at 0.015 nM. Moreover, in the experiment with human CDH6 on cells [1], the “percent inhibition … JHOS4 cells” value came to 67.6%; the “percent inhibition … KNS42 cells” value came to 56.8%; the “percent inhibition at 1.22 nM ADC, NCIH661 cells” value was determined as 32.5%; the “percent inhibition at 1.22 nM ADC, OVCAR3 cells” value is 87.6%. Also, the “percent inhibition … SNU8 cells” value with human CDH6 on cells [1] amounted to 31.4%.

B3: NOV0712-SPDB-DM4 (antibody, human IgG1, kappa, V domains shown)
VH: B2 VH
VL: B2 VL
modifications: SPDB-DM4 on primary amines, sites not stated
With B3, in the experiment with human CDH6 on cells [2], the “Amax (%), inhibition … OVCAR3 cells” value is 88%; the “Amax (%), inhibition … (engineered CDH6+) cells” value stood at 84%; the “IP [nM], inhibition … OVCAR3 cells” value is 0.008 nM; the “IP [nM], inhibition … (engineered CDH6+) cells” value came out at 0.012 nM.

B4: NOV0709-SMCC-DM1 (antibody, human IgG1, lambda, V domains shown)
VH: QVQLLESGGGLVQPGGSLRLSCAASGFTFSTYYMHWVRQAPGKGLEWVSVISSDGSFTFYADSVKGRFTISRDNSKNTLYLQMNSLRAEDTAVYYCARHGYGAFDYWGQGTLVTVSS
VL: DIALTQPASVSGSPGQSITISCTGTSSDVGSYNYVSWYQQHPGKAPKLMIYYVSNRPSGVSNRFSGSKSGNTASLTISGLQAEDEADYYCASYTHQGSWVFGGGTKLTVLG
modifications: SMCC-DM1 on primary amines, sites not stated
As to B4, in the experiment with human CDH6 on cells [1], the “percent inhibition … JHOS4 cells” value came out at 4.5%; the “percent inhibition … KNS42 cells” value is -4.2%; the “percent inhibition at 1.22 nM ADC, NCIH661 cells” value was found to be 5.91%; the “percent inhibition at 1.22 nM ADC, OVCAR3 cells” value came to 46.9%. The “percent inhibition … SNU8 cells” value with human CDH6 on cells [1] is -7.7%.

B5: NOV0720-SMCC-DM1 (antibody, human IgG1, lambda, V domains shown)
VH: QVQLQQSGPGLVKPSQTLSLTCAISGDSVSSNSAGWNWIRQSPSRGLEWLGRIYYRSKWYNDYAVSVKSRITINPDTSKNQFSLQLNSVTPEDTAVYYCAREKYTVSFYDFFDYWGQGTLVTVSS
VL: DIELTQPPSVSVSPGQTASITCSGDNIGSMTAHWYQQKPGQAPVLVIYDKNERPSGIPERFSGSNSGNTATLTISGTQAEDEADYYCQSWDDSYNSVVFGGGTKLTVLG
modifications: SMCC-DM1 on primary amines, sites not stated
As to B5, in the experiment with human CDH6 on cells [1], the “percent inhibition … JHOS4 cells” value turned out to be 43.5%; the “percent inhibition … KNS42 cells” value was 57%; the “percent inhibition at 1.22 nM ADC, NCIH661 cells” value came out at 1.94%; the “percent inhibition at 1.22 nM ADC, OVCAR3 cells” value stood at 80.7%. In the experiment with human CDH6 on cells [1], the “percent inhibition … SNU8 cells” value is 3.56%.

B6: NOV0718-SMCC-DM1 (antibody, human IgG1, lambda, V domains shown)
VH: QVQLVESGGGLVKPGGSLRLSCAASGFTFNSYALHWVRQAPGKGLEWVGRIKSKTNGGTTDYAAPVKGRFTISRDDSKNTLYLQMNSLKTEDTAVYYCARVDATYSYSGYYYPMDYWGQGTLVTVSS
VL: DIELTQPPSVSVSPGQTASITCSGDKIPTYTVHWYQQKPGQAPVLVIYDDNKRPSGIPERFSGSNSGNTATLTISGTQAEDEADYYCQSTASGTVVFGGGTKLTVLG
modifications: SMCC-DM1 on primary amines, sites not stated
For B6, in the experiment with human CDH6 on cells [1], the “percent inhibition … JHOS4 cells” value was -5.03%; the “percent inhibition … KNS42 cells” value worked out at 3.5%; the “percent inhibition at 1.22 nM ADC, NCIH661 cells” value came to 2.51%; the “percent inhibition at 1.22 nM ADC, OVCAR3 cells” value is -3.8%. For the same molecule, the “percent inhibition … SNU8 cells” value with human CDH6 on cells [1] turned out to be 3.35%.

B7: NOV0710-SPDB-DM4 (antibody, human IgG1, kappa, V domains shown)
VH: QVQLLESGGGLVQPGGSLRLSCAASGFTFSSYAMSWVRQAPGKGLEWVSVIRSSGSSTYYADSVKGRFTISRDNSKNTLYLQMNSLRAEDTAVYYCARGGGYFDYWGQGTLVTVSS
VL: DIQMTQSPSSLSASVGDRVTITCRASQSISLWLNWYQQKPGKAPKLLIYAASTLQSGVPSRFSGSGSGTDFTLTISSLQPEDFATYYCQQYYTSPYTFGQGTKVEIKR
modifications: SPDB-DM4 on primary amines, sites not stated
In the case of B7, in the experiment with human CDH6 on cells [2], the “Amax (%), inhibition … OVCAR3 cells” value is 88%; the “Amax (%), inhibition … (engineered CDH6+) cells” value was 85%; the “IP [nM], inhibition … OVCAR3 cells” value was 0.01 nM; the “IP [nM], inhibition … (engineered CDH6+) cells” value stood at 0.018 nM.

B8: NOV0719-SMCC-DM1 (antibody, human IgG1, kappa, V domains shown)
VH: QVQLLESGGGLVQPGGSLRLSCAASGFTFSSHWVHWVRQAPGKGLEWVSVISYMGSSTYYADSVKGRFTISRDNSKNTLYLQMNSLRAEDTAVYYCARGSYDMAFDVWGQGTLVTVSS
VL: DIQMTQSPSSLSASVGDRVTITCRASQSIVSYLNWYQQKPGKAPKLLIYDASSLQSGVPSRFSGSGSGTDFTLTISSLQPEDFATYYCQQSGSHSITFGQGTKVEIKR
modifications: SMCC-DM1 on primary amines, sites not stated
In the case of B8, in the experiment with human CDH6 on cells [1], the “percent inhibition … JHOS4 cells” value was found to be 27.2%; the “percent inhibition … KNS42 cells” value amounted to 41%; the “percent inhibition at 1.22 nM ADC, NCIH661 cells” value was -9.87%; the “percent inhibition at 1.22 nM ADC, OVCAR3 cells” value is 76%. The “percent inhibition … SNU8 cells” value with human CDH6 on cells [1] worked out at 3.18%.

B9: NOV0692 (antibody, human IgG1, lambda, V domains shown)
VH: QVQLVESGGGLVKPGGSLRLSCAASGFTFSRYWMDWVRQAPGKGLEWVGRIKSKANGGITDYAAPVKGRFTISRDDSKNTLYLQMNSLKTEDTAVYYCARGMTFLGIWGQGTLVTVSS
VL: DIELTQPPSVSVSPGQTASITCSGDSIGSKYAQWYQQKPGQAPVLVIYYNSERPSGIPERFSGSNSGNTATLTISGTQAEDEADYYCQSWDGQSTIRVFGGGTKLTVLG
On to B9, for which the “response of secondary antibody on primary antibody-CDH6 complex” value in the experiment with hCDH6aa54-615 APPavi [3] was 35.5; with hCDH6aa54-615 APPavi [4] it was 23.2; with hCDH6aa54-615 APPavi [5] it was 7.83; in the experiment with hCDH6aa54-615 APPavi [6] it was -2.84; with hCDH6aa54-615 APPavi [7], 14.1; with hCDH6aa54-615 APPavi [8], 17.9.
